Measurements as given in the supplement of paper PMC9170038.

System: MS2 coat protein
Test: apparent KD of MS2 coat protein; designed switch direction (-1 OFF switch, 1 ON switch): 1; higher = weaker reporter binding
In short: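 For each design, the apparent KD is the median over clusters of curves fitted to normalised cluster fluorescence. Clusters held RNA switches with common flanks, transcribed on Illumina chips by stalled E. coli RNA polymerase. These were titrated with SNAP-549-labelled MS2 coat protein, doubling from 0.7 or 1.5 nM to 3 µM, without input, with 200 uM small-molecule ligand, or with an oligonucleotide input.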

[1] = input ligand: microRNA oligo, concentration not stated
[2] = Eterna round: R95, input ligand: FMN 200 uM
[3] = Eterna round: R95, input ligand: microRNA oligo, concentration not stated
[4] = Eterna round: R95, input ligand: none

Row | Sequence | apparent KD of MS2 coat protein [1] | apparent KD of MS2 coat protein [2] | apparent KD of MS2 coat protein [3] | apparent KD of MS2 coat protein [4] | apparent KD of MS2 coat protein (input ligand: FMN 200 uM) | apparent KD of MS2 coat protein (input ligand: none)
1 | UAUAAACAUGAGGAUCACCCAUGUAAUAAUAUGGGAGGAUAUCAGAAUUUAUUUAUUUAAUGAGAAGGCCUAAUAU [Mat - Same State 1 - Mod of Eli - D67] (Eterna round: R96, puzzle: Same State 1) | 0.44 µM | – | – | – | – | –
2 | UAUAAACAUGAGGAUCACCCAUGUAAUAAUAUGGGAGGAUAUCAGAAUUUAUUUAUUUAAUGAGAAGGCCUAAUAU [Mat - Same State 1 - Mod of Eli - D67] (puzzle: Same State 1) | – | 0.0345 µM | 0.21 µM | 0.562 µM | – | –
3 | UAUUAGAUCCGAGGAUAUCCUUAUAAGAAACAUGAGGAUCACCCAUGUAAAGGGAAUUAUUUGUAGGAGAAGGCGGAUUUAGUU [JR_SSNG2_Sub055] (Eterna round: R96, puzzle: Same State NG 2) | 0.023 µM | – | – | – | 0.0289 µM | 0.0413 µM
4 | UCAAGCGAGAGGCUCGUCUUAUGUAAGGUACAUGAGGAUCACCCAUGUGAGGGACGAUUGAGUUAGAUGGAAUGGAG [JR_SHM208A_Sub033] (puzzle: Sensor for hsa-mir-208a) | – | 0.0423 µM | 0.121 µM | 0.0509 µM | – | –
5 | UCAAGCGUUUGGCUCGUCUUAUGUUUGGUACAUGAGGAUCACCCAUGUUAUGUACGAUCCAGUUAGAUGGUAUUUUG [JR_SHM208A_Sub037] (puzzle: Sensor for hsa-mir-208a) | – | 0.0359 µM | 0.127 µM | 0.0471 µM | – | –
6 | UCAAUCAUGUAAGGAUAUGCAGCCGAAACGGCUGCAGAAGGUACUAUAAUUACAUGAGGAUCACCCAUGUUAUAAAAUAAAUAU [Mat - Same State NG 1 - JL mod - D80] (Eterna round: R96, puzzle: Same State NG 1) | 0.0927 µM | – | – | – | 0.0409 µM | 0.16 µM
7 | UCGAGCGUACUUGCAGACAUGAGGAUCACCCAUGUAAAUGGGAAGGAUAUGGUACCGUUUCGGUACCAGAAGGUCCUAAGUGCU [salish99_SSNG3_r04_304] (Eterna round: R96, puzzle: Same State NG 3) | 0.862 µM | – | – | – | 0.166 µM | 1.44 µM
8 | UCUCGGCACGCAGGAUAUCCCGCUUCCUGGUGAGGAGAAGGGUGGUCGGGAAAACAUGAGGAUCACCCAUGUAAAAGUAAGAGG [Usdidige] (Eterna round: R96, puzzle: Same State NG 1) | 0.0613 µM | – | – | – | 0.0416 µM | 0.183 µM
9 | UCUGCAUGAACAGGAUAUGGGUUCAGAGCGGGAGUGCGCUUUGACACAUGAGGAUCACCCAUGUCCCAGAAGGGUUCAAGCGGC [Rianbein] (Eterna round: R96, puzzle: Same State NG 2) | 0.219 µM | – | – | – | 0.0477 µM | 0.43 µM
10 | UCUUGGUUUUUGCUCGUUUUUUGUGUUGAACAUGAGGAUCACCCAUGUAUUGUACGGUCCAGUUUAAUAAUGGUCCA [JMF 6] (puzzle: Sensor for hsa-mir-208a) | – | 0.0259 µM | 0.0144 µM | 0.026 µM | – | –
11 | UGAACCUUCACAGGAUAUCAUGCGAAAAUUGCGUGAGAAGGGUGGAUGUGGCGUUCAUAGUUGCACAUGAGGAUCACCCAUGUA [SameState NG1 #50] (Eterna round: R96, puzzle: Same State NG 1) | 0.212 µM | – | – | – | 0.257 µM | 0.134 µM
